Data from US20020055130.

Key:
[1] = molecular target: T1, purified recombinant MEKK1 NH2-terminal fusion protein (50 kD) (UniProt P53349)
T1 sequence: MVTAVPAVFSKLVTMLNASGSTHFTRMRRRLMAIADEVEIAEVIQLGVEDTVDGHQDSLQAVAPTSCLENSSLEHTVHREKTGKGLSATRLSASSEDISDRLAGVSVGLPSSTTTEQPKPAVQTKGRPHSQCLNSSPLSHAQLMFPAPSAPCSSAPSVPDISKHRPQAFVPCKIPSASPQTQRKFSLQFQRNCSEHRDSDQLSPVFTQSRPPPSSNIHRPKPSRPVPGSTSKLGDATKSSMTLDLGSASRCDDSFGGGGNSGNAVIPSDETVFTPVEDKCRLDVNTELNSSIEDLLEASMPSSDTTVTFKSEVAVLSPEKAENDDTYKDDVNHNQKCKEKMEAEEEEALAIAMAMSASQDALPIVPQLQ

[2] = test system: purified recombinant catalytically inactive MEK-1

98 kD MEKK protein (98 kD MEKK1) of PC12, Rat1a, NIH3T3 and Swiss3T3 cells
phosphorylation of the MEKK1 NH2-terminal fusion protein by immunoprecipitates (in vitro kinase assay) [1]: MEKK1 immunoprecipitated from lysates of EGF-stimulated and unstimulated PC12 cells robustly phosphorylated the inert 50 kD MEKK1 NH2-fusion protein | phosphorylation of kinase inactive MEK-1 by Mono Q fractions (in vitro kinase assay) [2]: Fractions 10-14 of lysate from PC 12 cells treated with EGF phosphorylated MEK-1
